Experimental data reported in patent US6943243.

Target: TraR (Agrobacterium strain A348)
Assay: cell-based or functional assay

Substance	fold +/- (induction of GUS by C8-AHL, TraR + TraM co-transfected) [fold]	fold +/- (induction of GUS by C8-AHL, TraR + TraS co-transfected) [fold]
TraM	0.8	
TraS		6.6
